kcat/Km, Km and kcat data for 5 proteins are collected here from ChEMBL document CHEMBL1139388, “Crystal structure of the Homo sapiens kynureninase-3-hydroxyhippuric acid inhibitor complex: insights into the molecular basis of kynureninase substrate specificity” (J Med Chem, 2009).

The Km is the substrate concentration at which the rate is half of its maximum.

Where a chain is given by its changes, count along the chain named. In names and notes the source's numbering stands.

Holding throughout (conditions): Homo sapiens
Substrate in data set [1]: Nc1ccccc1C(=O)C[C@H](N)C(=O)O
Description: (§1) Ratio of kcat to Km for human wild type kynureninase
Substrate in data set [2]: Nc1c(O)cccc1C(=O)CC(N)C(=O)O
Description: as §1
Substrate in data set [3]: Nc1ccccc1C(=O)C[C@H](N)C(=O)O
The source holds these as a separate data set.
Description: (§2) Activity of human wild type kynureninase

Substrate in data set [4]: Nc1c(O)cccc1C(=O)CC(N)C(=O)O
The source holds these as a separate data set.
Description: as §2

Substrate in data set [5]: Nc1ccccc1C(=O)C[C@H](N)C(=O)O
The source holds these as a separate data set.
Description: (§3) Ratio of kcat to Km for human kynureninase H102W/N333T mutant

Substrate in data set [6]: Nc1c(O)cccc1C(=O)CC(N)C(=O)O
This is another data set of the same source.
Description: as §3

Substrate in data set [7]: Nc1ccccc1C(=O)C[C@H](N)C(=O)O
This is another data set of the same source.
Description: Activity of human kynureninase H102W/N333T mutant

Substrate in data set [8]: Nc1ccccc1C(=O)C[C@H](N)C(=O)O
This is another data set of the same source.
Description: (§4) Activity of human kynureninase N333T mutant

Substrate in data set [9]: Nc1c(O)cccc1C(=O)CC(N)C(=O)O
This is another data set of the same source.
Description: as §4

Substrate in data set [10]: Nc1ccccc1C(=O)C[C@H](N)C(=O)O
This is another data set of the same source.
Description: (§5) Ratio of kcat to Km for human kynureninase N333T mutant

Substrate in data set [11]: Nc1c(O)cccc1C(=O)CC(N)C(=O)O
The source holds these as a separate data set.
Description: as §5

Substrate in data set [12]: Nc1ccccc1C(=O)C[C@H](N)C(=O)O
The source holds these as a separate data set.
Description: (§6) Activity of human kynureninase S332G/N333T mutant

Substrate in data set [13]: Nc1c(O)cccc1C(=O)CC(N)C(=O)O
The source holds these as a separate data set.
Description: as §6

Substrate in data set [14]: Nc1ccccc1C(=O)C[C@H](N)C(=O)O
The source holds these as a separate data set.
Description: (§7) Ratio of kcat to Km for human kynureninase S332G/N333T mutant

Substrate in data set [15]: Nc1c(O)cccc1C(=O)CC(N)C(=O)O
The source holds these as a separate data set.
Description: as §7

Substrate in data set [16]: Nc1ccccc1C(=O)C[C@H](N)C(=O)O
The source holds these as a separate data set.
Description: Activity of human kynureninase H102W/S332G/N333T mutant

Substrate in data set [17]: Nc1ccccc1C(=O)C[C@H](N)C(=O)O
The source holds these as a separate data set.
Description: (§8) Ratio of kcat to Km for human kynureninase H102W/S332G/N333T mutant

Substrate in data set [18]: Nc1c(O)cccc1C(=O)CC(N)C(=O)O
Description: as §8
The source holds these as a separate data set.

B1: Kynureninase (Homo sapiens), Q16719 (protein)
chain: MEPSSLELPADTVQRIAAELKCHPTDERVALHLDEEDKLRHFRECFYIPKIQDLPPVDLSLVNKDENAIYFLGNSLGLQPKMVKTYLEEELDKWAKIAAYGHEVGKRPWITGDESIVGLMKDIVGANEKEIALMNALTVNLHLLMLSFFKPTPKRYKILLEAKAFPSDHYAIESQLQLHGLNIEESMRMIKPREGEETLRIEDILEVIEKEGDSIAVILFSGVHFYTGQHFNIPAITKAGQAKGCYVGFDLAHAVGNVELYLHDWGVDFACWCSYKYLNAGAGGIAGAFIHEKHAHTIKPALVGWFGHELSTRFKMDNKLQLIPGVCGFRISNPPILLVCSLHASLEIFKQATMKALRKKSVLLTGYLEYLIKHNYGKDKAATKKPVVNIITPSHVEERGCQLTITFSVPNKDVFQELEKRGVVCDKRNPNGIRVAPVPLYNSFHDVYKFTNLLTSILDSAETKN
Regarding B1, the kcat/Km in data set [1] came to 465 M⁻¹ s⁻¹; in [2], 1.23 ×10⁵ /M/s. Moreover, the Km in data set [3] came to 495 µM; in [4], 28.3 µM. Also, the kcat is 0.23 s⁻¹ in [3] and 3.5 s⁻¹ in data set [4].

B2: Kynureninase (Homo sapiens), Q16719 H102W,N333T (protein)
chain: B1 chain with H102W, N333T
For B2, the kcat/Km was 21.4 M⁻¹ s⁻¹ in data set [5] and less than 0.0165 M⁻¹ s⁻¹ in [6]. Besides, the Km in [7] was found to be 327 µM. Also, the kcat in data set [7] was 0.007 s⁻¹.

B3: Kynureninase (Homo sapiens), Q16719 N333T (protein)
chain: B1 chain with N333T
As to B3, the Km in data set [8] is 499 µM; in [9], greater than 200 µM. Further, the figures for the kcat in [8] and in data set [9] were 0.026 s⁻¹ and less than 3.9 ×10⁻³ /s, respectively. The kcat/Km in data set [10] was found to be 52.1 M⁻¹ s⁻¹; in [11], 19.8 M⁻¹ s⁻¹.

B4: Kynureninase (Homo sapiens), Q16719 S332G,N333T (protein)
chain: B1 chain with S332G, N333T
For B4, the Km in data set [12] was 540 µM; in data set [13], greater than 510 µM. Further, the values for the kcat in data set [12] and in data set [13] were 0.017 s⁻¹ and less than 10.9 ×10⁻³ /s, respectively. The kcat/Km in [14] was 31.4 M⁻¹ s⁻¹; in [15], 21.5 M⁻¹ s⁻¹.

B5: Kynureninase (Homo sapiens), Q16719 H102W,S332G,N333T (protein)
chain: B1 chain with H102W, S332G, N333T
For the protein B5, in [16], the Km turned out to be 143 µM and the kcat stood at 0.018 s⁻¹. In addition, the kcat/Km in data set [17] amounted to 126 M⁻¹ s⁻¹. The kcat/Km in data set [18] is less than 0.0165 M⁻¹ s⁻¹.
